Experimental data as given in patent US8287851B2, “Use of interleukin 17E for the treatment of cancer” (Lorus Therapeutics Inc., priority 2005, dated 2012).

B1: murine IL-17E: Murine IL-17E from R&D Systems; predominant form starting at Val 17 of GenBank NP 542767 (protein)
chain: VSLRIQEGCSHLPSCCPSKEQEPPEEWLKWSSASVSPPEPLSHTHHAESCRASKDGPLNSRAISPWSYELDRDLNRVPQDLYHARCLCPHCVSLQTGSHMDPLGNSVPLYHNQTVFYRRPCHGEEGTHRRYCLERRLYRVSLACVCVRPRVMA
B2: human IL-17E: Recombinant human IL-17E from PeproTech; two 145 amino acid chains, predominant form starting at Tyr 33 of GenBank AAG40848 (protein, listed as Homo sapiens)
chain: YSHWPSCCPSKGQDTSEELLRWSTVPVPPLEPARPNRHPESCRASEDGPLNSRAISPWRYELDRDLNRLPQDLYHARCLCPHCVSLQTGSHMDPRGNSELLYHNQTVFYRRPCHGEKGTHKGYCLERRLYRVSLACVCVRPRVMG

Tests used:
splenic B cells = assay: Splenic B cell numbers and activation in C8161 tumour bearing mice (flow cytometry); format: in vivo, CD-1 nude mice; conditions: C8161-engrafted mice
Procedure: The increase in B cells was examined in BD-BRM-treated CD-1 nude mice. Briefly, the mice with human melanoma xenografts were treated for 4 weeks with either BD-BRM or PBS, as described in the preceding examples. Splenocytes were examined by flow cytometry for B cells using anti-IgM antibodies.
Antibodies fluorescein isothiocyanate (FITC)-anti-mouse IgM (eB121-15F9; IgG2a), phycoerythrin (PE) anti-mouse CD86 (GL1; IgG2a) and PE anti-mouse CD80 (16-10A1; hamster IgG) were purchased from eBioscience (San Diego, Calif.).
Flow cytometry was performed as described above. Briefly, splenocytes were isolated individually from CD1-nude C8161 tumour bearing mice treated 4 weeks with BD-BRM or PBS. Red blood cells were removed, followed by surface staining with (A) anti-IgM antibody-FITC or (B) anti-IgM-FITC and anti-CD80-PE+anti-CD86-PE by flow cytometry.
(§1) The effect of interleukin 17E on increased percentage of splenic eosinophils and B cells and the proportion of activated splenic B cells was examined. CD1-nude mice engrafted with C8161 human melanoma cells were treated with either PBS, murine IL-17E, or human IL-17E as described previously. At the endpoint of the experiment, spleens were isolated from treated mice, stained with markers specific for eosinophils (CCR3+), B cells (either IgM+ or CD19+), and B cell activation (CD-80+, CD86+), and examined by flow cytometry. Flow cytometry was performed as described in Example 4 above.
The percentage of eosinophils was determined by surface staining the granulocyte-gated population with phycoerythrin (PE)-conjugated anti-mouse CCR3. The percentage of B cells in the spleen was examined by surface staining with phycoerythrin (PE)-conjugated anti-mouse CD19. The proportion of activated splenic B cells was determined by staining with FITC-conjugated anti-mouse IgM together with PE-conjugated anti-mouse CD80 and PE-conjugated anti-mouse CD86. Statistical analysis was performed to compare eosinophil and B cell numbers/activation. P values <0.01 were considered to be significant.
In order to confirm that the effect of BD-BRM on splenic B cells as described in Example 5 is due to interleukin 17E activity, the effect of interleukin 17E on numbers and activation status of splenic B cells was examined. CD1-nude mice engrafted with C8161 human melanoma cells were treated with either PBS or murine IL-17E as described previously. At the endpoint of the experiment, spleens were isolated from treated mice, stained with markers specific for B cells (IgM+), and B cell activation (CD-80+, CD86+), and examined by flow cytometry. Flow cytometry was performed as described in Example 4 above.
Splenocytes were analyzed for the percentage of B cells by surface staining with FITC-conjugated anti-mouse IgM antibodies. Activated B cells were determined by surface staining with FITC-conjugated-anti-mouse IgM antibodies, and PE-conjugated-anti-mouse CD80 and PE-conjugated-anti-mouse CD86. Statistical analysis was performed to compare B cell numbers/activation. P values <0.01 were considered to be significant.

[1] = tested on: eosinophils (CCR3+) in spleen; assay: Eosinophils (CCR3+) in spleen of C8161 tumour xenografted mice; format: in vivo, CD-1 nude mice; conditions: C8161-engrafted mice, Example 21
Procedure: Briefly, single cell suspensions of spleen cells were obtained by meshing and passing through a cell strainer (70 um; Bectin Dickinson) to separate fibrous tissue. Erythrocytes were lysed with ACK (0.155 M ammonium chloride, 0.1 mM disodium EDTA, 0.01 M potassium bicarbonate, pH 7.3) for 5 minutes on ice. The single cell suspensions of spleen cells were then analyzed by flow cytometry for the presence of eosinophils by surface staining with an antibody to CCR3 using the method as described in Example 13.
as §1, with “Flow cytometry was performed as described in Example 4 above.” left out
The percentage of eosinophils was determined by surface staining the granulocyte-gated population with phycoerythrin (PE)-conjugated anti-mouse CCR3. […] The proportion of activated splenic B cells was determined by staining with FITC-conjugated anti-mouse IgM together with PE-conjugated anti-mouse CD80 and PE-conjugated anti-mouse CD86. […]

[2] = tested on: B cell linker protein BLNK; assay: BLNK phosphorylation in B cell lymphoma cell line WEHI-231 (Western blot); format: cell-based; conditions: 0.21 μg per 1.5×10^6 WEHI-231 cells, 0, 2, 5 minutes
Excerpt: The effect of IL-17E on activation of signaling pathways in B cells was examined using the B cell lymphoma cell line WEHI-231 (Lanier L. L., et al. (1981) J. Immunol. 126:626-31). Specifically, the activation status of the protein tyrosine kinase Lyn and the B cell linker protein BLNK (Tsubata, T., et al., (2001) Int Rev Immunol 20:675-8) were examined. An increased level of the phosphorylated forms of these proteins is indicative of activation.
A total of 1.5×10^6 cells per sample were stimulated in vitro with 0.21 μg of either human IL-17E or murine IL17E at 37° C. Cells were lysed at time points t=0, 2, and 5 minutes in lysis buffer for 30 minutes on ice, followed by centrifugation for 10 minutes. Samples containing approximately 25 μg of protein were separated by SDS-PAGE, followed by transfer to membranes for Western blotting.
For detection of phosphorylated BLNK, Western blots were incubated with rabbit anti-phospho-BLNK antibodies, followed by horseradish peroxidase (HRP)-conjugated anti-rabbit antibodies.
To assess equivalence in protein loading among lanes in both experiments, blots were stripped of antibodies and incubated with mouse anti-GAPDH antibodies and HRP-conjugated anti-mouse antibodies, followed by chemiluminescence-based detection.

Molecule	percentage of splenic B cells (CD19+) as compared to PBS (splenic B cells; Example 21)	proportion of activated B cells (IgM, CD80, CD86) in the spleen as compared to PBS (splenic B cells; Example 21)	percentage of splenic B cells (IgM+) as compared to PBS (splenic B cells; Example 22)	proportion of activated B cells (IgM, CD80, CD86) in the spleen as compared to PBS (splenic B cells; Example 22)	percentage of splenic eosinophils (CCR3+, granulocyte-gated) as compared to PBS [1]	levels of phosphorylated BLNK protein [2]
B1	significantly increased	significantly increased	significantly increased	significantly increased	significantly increased	increased
B2	significantly increased	significantly increased	–	–	significantly increased	increased
